Laboratory results taken from the supplement of paper PMC10567573.

B1: NCK2 (parent)
chain: YTGPSSSGRFAGREWYYGNVTRHQ

Variants of: B1
Assay: protein stability index of a GFP-peptide fusion (GPS, HEK-293T) (PSI 1-6); higher = more stable
Details: c terminus: a fixed tail appended
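Further: lentivirally expressed fusions sorted by FACS into six bins by GFP to DsRed ratio, PSI derived from sequencing read proportions per bin multiplied by bin number.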

Variant | protein stability index
YTGPSSSGRFAGREWYYGRVTRHQ [N19R] | 2.53
YTGPSSSGRFAGREWYYGPVTRHQ [N19P] | 2.58
YTGPSSSGRFAGREWYYGCVTRHQ [N19C] | 1.55
YTGPSSSGRFAGREWYYGMVTRHQ [N19M] | 3.08
YTGPSSSGRFAGREWYYGKVTRHQ [N19K] | 1.38
YTGPSSSGRFAGREWYYGQVTRHQ [N19Q] | 3.23
YTGPSSSGRFAGREWYYGWVTRHQ [N19W] | 3.18
YTGPSSSGRFAGREWYYGFVTRHQ [N19F] | 2.01
YTGPSSSGRFAGREWYYGLVTRHQ [N19L] | 2.05
YTGPSSSGRFAGREWYYGSVTRHQ [N19S] | 1.44
YTGPSSSGRFAGREWYYGHVTRHQ [N19H] | 2.12
YTGPSSSGRFAGREWYYGTVTRHQ [N19T] | 2.44
YTGPSSSGRFAGREWYYGIVTRHQ [N19I] | 1.53
YTGPSSSGRFAGREWYYGVVTRHQ [N19V] | 1.61
YTGPSSSGRFAGREWYYGAVTRHQ [N19A] | 2.09
YTGPSSSGRFAGREWYYGGVTRHQ [N19G] | 1.63
YTGPSSSGRFAGREWYYGEVTRHQ [N19E] | 1.53
YTGPSSSGRFAGREWYYGDVTRHQ [N19D] | 1.76
YTGPSSSGRFAGREWYNGNVTRHQ [Y17N] | 1.59
YTGPSSSGRFAGREWYVGNVTRHQ [Y17V] | 1.89
YTGPSSSGRFAGREWYLGNVTRHQ [Y17L] | 1.58
YTGPSSSGRFAGREWYDGNVTRHQ [Y17D] | 2.64
YTGPSSSGRFAGREWYHGNVTRHQ [Y17H] | 2.06
YTGPSSSGRFAGREWYCGNVTRHQ [Y17C] | 1.77

Variant | protein stability index
YTGPSSSGRFAGREWYQGNVTRHQ [Y17Q] | 1.97
YTGPSSSGRFAGREWYKGNVTRHQ [Y17K] | 1.91
YTGPSSSGRFAGREWYGGNVTRHQ [Y17G] | 2.83
YTGPSSSGRFAGREWYIGNVTRHQ [Y17I] | 3.41
YTGPSSSGRFAGREWYAGNVTRHQ [Y17A] | 2.11
YTGPSSSGRFAGREWYRGNVTRHQ [Y17R] | 2.19
YTGPSSSGRFAGREWYTGNVTRHQ [Y17T] | 1.36
YTGPSSSGRFAGREWYMGNVTRHQ [Y17M] | 1.87
YTGPSSSGRFAGREWYEGNVTRHQ [Y17E] | 2.56
YTGPSSSGRFAGREWYSGNVTRHQ [Y17S] | 2.44
YTGPSSSGRFAGREWYPGNVTRHQ [Y17P] | 1.76
YTGPSSSGRFAGREWYYHNVTRHQ [G18H] | 2.11
YTGPSSSGRFAGREWYYPNVTRHQ [G18P] | 1.89
YTGPSSSGRFAGREWYYKNVTRHQ [G18K] | 2.64
YTGPSSSGRFAGREWYYWNVTRHQ [G18W] | 2.18
YTGPSSSGRFAGREWYYRNVTRHQ [G18R] | 2.44
YTGPSSSGRFAGREWYYENVTRHQ [G18E] | 1.44
YTGPSSSGRFAGREWYYLNVTRHQ [G18L] | 3
YTGPSSSGRFAGREWYYDNVTRHQ [G18D] | 2.39
YTGPSSSGRFAGREWYYNNVTRHQ [G18N] | 2.49
YTGPSSSGRFAGREWYYINVTRHQ [G18I] | 1.74
YTGPSSSGRFAGREWYYVNVTRHQ [G18V] | 2.68
YTGPSSSGRFAGREWYYANVTRHQ [G18A] | 1.46
YTGPSSSGRFAGREWYYYNVTRHQ [G18Y] | 2.03

Variant | protein stability index
YTGPSSSGRFAGREWYYTNVTRHQ [G18T] | 1.04
YTGPSSSGRFAGREWYYCNVTRHQ [G18C] | 2.35
YTGPSSSGRFAGREWYYQNVTRHQ [G18Q] | 2.23
YTGPSSSGRFAGREWYYMNVTRHQ [G18M] | 1.55
YTGPSSSGRFAGREWYYSNVTRHQ [G18S] | 2.99
YTGPSSSGRFAGREWYYFNVTRHQ [G18F] | 1.6
YTGPSSSGRFAGRERYYGNVTRHQ [W15R] | 2.35
YTGPSSSGRFAGRELYYGNVTRHQ [W15L] | 1.77
YTGPSSSGRFAGRETYYGNVTRHQ [W15T] | 2.28
YTGPSSSGRFAGREVYYGNVTRHQ [W15V] | 2.36
YTGPSSSGRFAGRENYYGNVTRHQ [W15N] | 2.73
YTGPSSSGRFAGREQYYGNVTRHQ [W15Q] | 2.36
YTGPSSSGRFAGREHYYGNVTRHQ [W15H] | 2.66
YTGPSSSGRFAGREGYYGNVTRHQ [W15G] | 2.82
YTGPSSSGRFAGRECYYGNVTRHQ [W15C] | 2.19
YTGPSSSGRFAGRESYYGNVTRHQ [W15S] | 1.5
YTGPSSSGRFAGREIYYGNVTRHQ [W15I] | 1.71
YTGPSSSGRFAGREKYYGNVTRHQ [W15K] | 2.22
YTGPSSSGRFAGREPYYGNVTRHQ [W15P] | 2.36
YTGPSSSGRFAGREFYYGNVTRHQ [W15F] | 2.19
YTGPSSSGRFAGREDYYGNVTRHQ [W15D] | 2.83
YTGPSSSGRFAGREAYYGNVTRHQ [W15A] | 2.49
YTGPSSSGRFAGREEYYGNVTRHQ [W15E] | 2.52
YTGPSSSGRFAGREYYYGNVTRHQ [W15Y] | 2.23

Variant | protein stability index
YTGPSSSGRFAGREMYYGNVTRHQ [W15M] | 2.18
YTGPSSSGRFAGRVWYYGNVTRHQ [E14V] | 2.56
YTGPSSSGRFAGRWWYYGNVTRHQ [E14W] | 1.92
YTGPSSSGRFAGRYWYYGNVTRHQ [E14Y] | 1.3
YTGPSSSGRFAGREWIYGNVTRHQ [Y16I] | 2.19
YTGPSSSGRFAGREWHYGNVTRHQ [Y16H] | 2.03
YTGPSSSGRFAGREWTYGNVTRHQ [Y16T] | 2.45
YTGPSSSGRFAGREWRYGNVTRHQ [Y16R] | 1.98
YTGPSSSGRFAGREWGYGNVTRHQ [Y16G] | 1.81
YTGPSSSGRFAGREWVYGNVTRHQ [Y16V] | 1.5
YTGPSSSGRFAGREWLYGNVTRHQ [Y16L] | 1.59
YTGPSSSGRFAGREWNYGNVTRHQ [Y16N] | 2.13
YTGPSSSGRFAGREWWYGNVTRHQ [Y16W] | 2.29
YTGPSSSGRFAGREWKYGNVTRHQ [Y16K] | 2.06
YTGPSSSGRFAGREWCYGNVTRHQ [Y16C] | 2.03
YTGPSSSGRFAGREWQYGNVTRHQ [Y16Q] | 2.37
YTGPSSSGRFAGREWSYGNVTRHQ [Y16S] | 2.33
YTGPSSSGRFAGREWEYGNVTRHQ [Y16E] | 2.26
YTGPSSSGRFAGREWAYGNVTRHQ [Y16A] | 2.24
YTGPSSSGRFAGREWDYGNVTRHQ [Y16D] | 2.27
YTGPSSSGRFAGREWMYGNVTRHQ [Y16M] | 1.61
YTGPSSSGRFAGREWFYGNVTRHQ [Y16F] | 2.26
